Laboratory results as given in article PMC9976900.
Where a chain is given by its changes, count along the chain named.

Legend:
Unr CSD789 wild type [1] = molecular target: T1, Unr CSD789 wild type (Drosophila, UniProt B7Z0E2 756-990); assay: ITC
T1 sequence: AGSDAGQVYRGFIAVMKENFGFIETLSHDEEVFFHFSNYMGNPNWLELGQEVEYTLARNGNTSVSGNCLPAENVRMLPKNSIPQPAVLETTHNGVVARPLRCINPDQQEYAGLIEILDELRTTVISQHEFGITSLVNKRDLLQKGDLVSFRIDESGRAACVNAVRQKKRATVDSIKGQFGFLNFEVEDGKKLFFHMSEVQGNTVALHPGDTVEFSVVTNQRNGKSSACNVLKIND

Unr CSD789 wild type [2] = molecular target: T1, Unr CSD789 wild type; assay: NMR titration
Unr CSD789 E786A = molecular target: T2, Unr CSD789 E786A (Drosophila, UniProt B7Z0E2 756-990, E786A); assay: fluorescence polarization
T2 sequence: T1 sequence with E31A

Unr CSD789 Q868A = molecular target: T3, Unr CSD789 Q868A (Drosophila, UniProt B7Z0E2 756-990, Q898A); assay: fluorescence polarization
T3 sequence: T1 sequence with Q143A

Unr CSD789 R976A = molecular target: T4, Unr CSD789 R976A (Drosophila, UniProt B7Z0E2 756-990, R976A); assay: fluorescence polarization
T4 sequence: T1 sequence with R221A

Unr CSD789 R856A = molecular target: T5, Unr CSD789 R856A (Drosophila, UniProt B7Z0E2 756-990, R856A); assay: fluorescence polarization
T5 sequence: T1 sequence with R101A

Unr CSD789 Q975A = molecular target: T6, Unr CSD789 Q975A (Drosophila, UniProt B7Z0E2 756-990, Q975A); assay: fluorescence polarization
T6 sequence: T1 sequence with Q220A

Unr CSD789 wild type [3] = molecular target: T1, Unr CSD789 wild type; assay: fluorescence polarization
Unr CSD789 P860A = molecular target: T7, Unr CSD789 P860A (Drosophila, UniProt B7Z0E2 756-990, P860A); assay: fluorescence polarization
T7 sequence: T1 sequence with P105A

Unr CSD789 K979A = molecular target: T8, Unr CSD789 K979A (Drosophila, UniProt B7Z0E2 756-990, K979A); assay: fluorescence polarization
T8 sequence: T1 sequence with K224A

[4] = molecular target: T9, Unr CSD789 E786A/R856A/P860A (ERPmut) (Drosophila, UniProt B7Z0E2 756-990, E786A;R856A;P860A); assay: fluorescence polarization
T9 sequence: T1 sequence with E31A, R101A, P105A

Unr CSD789 N977A = molecular target: T10, Unr CSD789 N977A (Drosophila, UniProt B7Z0E2 756-990, N977A); assay: fluorescence polarization
T10 sequence: T1 sequence with N222A

pAbp RRM3 = pAbp RRM3 (Drosophila, UniProt P21187 176-263); assay: NMR titration
Chain of pAbp RRM3 (P21187 176-263): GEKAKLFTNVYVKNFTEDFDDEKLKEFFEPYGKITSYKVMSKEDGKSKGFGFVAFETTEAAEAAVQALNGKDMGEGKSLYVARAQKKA

B1: A7-mer (ssRNA)
RNA: AAAAAAA
Kd (Unr CSD789 wild type [1]): 17.7 ± 5.2 µM

B2: A15-mer (ssRNA)
RNA: AAAAAAAAAAAAAAA
Kd (Unr CSD789 wild type [2]): 8 ± 1.5 µM | Kd (Unr CSD789 wild type [1]): 4.8 ± 0.8 µM

B3: A15-mer, 3' labelled (ssRNA)
RNA: AAAAAAAAAAAAAAA
Kd (Unr CSD789 E786A): 50.1 ± 6.4 µM | Kd (Unr CSD789 Q868A): 61 ± 12.1 µM | Kd (Unr CSD789 R976A): 161 ± 51.2 µM | Kd (Unr CSD789 R856A): 72.4 ± 11 µM | Kd (Unr CSD789 Q975A): 38.2 ± 8.7 µM | Kd (Unr CSD789 wild type [3]): 21.1 ± 3.6 µM | Kd (Unr CSD789 P860A): 67.2 ± 7.9 µM | Kd (Unr CSD789 K979A): 160 ± 57.6 µM | Kd [4]: ~94.7 µM | Kd (Unr CSD789 N977A): 71.2 ± 12.5 µM

B4: A5-mer (ssRNA)
RNA: AAAAA
Kd (Unr CSD789 wild type [2]): 127 ± 16.6 µM | binding result (pAbp RRM3): binds

B5: A8-mer (ssRNA)
RNA: AAAAAAAA
binding result (pAbp RRM3): binds | Kd (Unr CSD789 wild type [1]): 4.4 ± 2.7 µM

B6: A9-mer (ssRNA)
RNA: AAAAAAAAA
Kd (Unr CSD789 wild type [1]): 4.3 ± 1.3 µM
